± gives the standard error. This sample holds only a part of the variants without activity.
B1: glmS ribozyme (parent)
chain: AUAAAAGCGCCAGAACUACAGAAAUGUAGUUGACGAGGAGGAGGUUUAUCGAAUUUUCGGCGGAUGCCUCCAAA

How the values were obtained:
Conditions in all cases: with glucosamine-6-phosphate
glucosamine-6-phosphate [1] = variants of: B1; assay: self-cleavage kobs at 40 uM GlcN6P; higher = faster cleavage; RNA array
Summary of the method: (§1)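 In situ transcription by E. coli RNA polymerase produced barcoded ribozyme variants on sequenced MiSeq chips, and a hybridised Cy3 probe tracked them at 37 °C. Glucosamine-6-phosphate was flowed in at 40 μM to 10 mM in HEPES/KCl/Mg(OAc)2 buffer. kcat and KM were taken from weighted Michaelis–Menten fits of kobs values from exponential decay fits.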

glucosamine-6-phosphate [2] = variants of: B1; assay: self-cleavage kobs at 10000 uM GlcN6P; higher = faster cleavage; RNA array
Summary of the method: as §1

glucosamine-6-phosphate [3] = variants of: B1; assay: self-cleavage kobs at 160 uM GlcN6P; higher = faster cleavage; RNA array
Summary of the method: as §1

glucosamine-6-phosphate [4] = variants of: B1; assay: self-cleavage kobs at 640 uM GlcN6P; higher = faster cleavage; RNA array
Summary of the method: as §1

glucosamine-6-phosphate [5] = variants of: B1; assay: self-cleavage kobs at 2500 uM GlcN6P; higher = faster cleavage; RNA array
Summary of the method: as §1

Row | Variant | self-cleavage kobs at 40 uM GlcN6P (glucosamine-6-phosphate [1]) [s⁻¹] | self-cleavage kobs at 10000 uM GlcN6P (glucosamine-6-phosphate [2]) [s⁻¹] | self-cleavage kobs at 160 uM GlcN6P (glucosamine-6-phosphate [3]) [s⁻¹] | self-cleavage kobs at 640 uM GlcN6P (glucosamine-6-phosphate [4]) [s⁻¹] | self-cleavage kobs at 2500 uM GlcN6P (glucosamine-6-phosphate [5]) [s⁻¹]
1 | G38A G60U U69G | < 1e-05 | < 1e-05 | – | – | –
2 | A36G C67U | < 1e-05 | – | – | – | –
3 | A39G A53C | 0.000254 ± 5.4e-05 | 0.0216 ± 0.0083 | 0.000658 ± 0.00016 | 0.00303 ± 0.00075 | 0.0068 ± 0.0017
4 | A39C G44A G60U C68U | < 1e-05 | – | – | – | –
5 | A36G C61A | < 1e-05 | < 1e-05 | – | < 1e-05 | –
6 | G35U A64C C68A | < 1e-05 | – | – | – | –
7 | A36C C70A | 3.5e-05 ± 1.7e-05 | – | 0.000113 ± 3.7e-05 | 6.93e-05 ± 3e-05 | –
8 | G38C A39C G43U U57G C71U | < 1e-05 | < 1e-05 | – | < 1e-05 | < 1e-05
9 | G35C G44A | < 1e-05 | < 1e-05 | – | – | –
10 | G35A U47C | < 1e-05 | – | < 1e-05 | < 1e-05 | < 1e-05
11 | G38U U46G G60C | < 1e-05 | – | < 1e-05 | < 1e-05 | < 1e-05
12 | G35C A64U | < 1e-05 | < 1e-05 | < 1e-05 | < 1e-05 | < 1e-05
13 | A36G G59U | < 1e-05 | < 1e-05 | < 1e-05 | < 1e-05 | < 1e-05
14 | A36G G60A | < 1e-05 | – | < 1e-05 | < 1e-05 | –
15 | A39C G40C U47C | < 1e-05 | – | – | – | –
16 | G38A C58A G66A | < 1e-05 | < 1e-05 | – | – | –
17 | G38U U47G C70G | 0.000113 ± 3.3e-05 | 9.01e-05 ± 2.3e-05 | – | – | –
18 | G35C A48U | < 1e-05 | < 1e-05 | – | – | < 1e-05
19 | G35C A48C | < 1e-05 | < 1e-05 | < 1e-05 | < 1e-05 | < 1e-05
20 | G37A C50G C58A C67A C71U | 4.39e-05 ± 1.4e-05 | – | – | – | 6.21e-05 ± 1.7e-05
21 | A36U U65G | < 1e-05 | < 1e-05 | < 1e-05 | – | –
22 | G35U G60C | < 1e-05 | < 1e-05 | < 1e-05 | < 1e-05 | < 1e-05

Reference: the supplement of paper PMC7125110
